According to publication PMC6352652, “Targeting early changes in the synovial microenvironment: a new class of immunomodulatory therapy?” (Annals of the Rheumatic Diseases, 2018):

Legend:
[1] = molecular target: T1, fibrinogen-like globe (FBG) domain of human tenascin-C (human, UniProt P24821); experiment: ELISA; solid phase binding assay: recombinant human TLR4 coated onto a 96-well plate; recombinant human FBG preincubated with C3 or isotype control antibody was added; bound FBG detected; details: both partners purified
T1 construct: tenascin-C, human, fibrinogen-like globe (FBG) domain at the C-terminus; contact residues are numbered A2115 to H2175; the constructs used for SPR, the crystal and the solid phase assay may differ; also called human FBG; recombinant human tenascin-C FBG; source: recombinant
T1 sequence (P24821 1975-2201): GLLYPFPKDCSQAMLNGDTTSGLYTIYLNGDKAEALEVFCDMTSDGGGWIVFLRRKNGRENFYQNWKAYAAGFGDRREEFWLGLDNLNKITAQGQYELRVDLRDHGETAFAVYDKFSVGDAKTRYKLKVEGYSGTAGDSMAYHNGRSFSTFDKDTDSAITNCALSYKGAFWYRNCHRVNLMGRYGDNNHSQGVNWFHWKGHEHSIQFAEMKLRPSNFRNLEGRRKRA

[2] = molecular target: T1, fibrinogen-like globe (FBG) domain of …; experiment: SPR; at 37°C; C3 on human and rat FBG; who was immobilised not stated
[3] = molecular target: T2, FBG domain of rat tenascin-C (Rattus norvegicus, UniProt A0A8I6AG89); experiment: as above
T2 construct: tenascin-C, rat, fibrinogen-like globe (FBG) domain; Printed only as 'rat antigen'; construct in the supplementary methods; also called rat antigen

- IC50 [1]: 45.6 nM
- Kd [2]: 0.07 nM
- Kd [3]: 1.2 nM
B1: monoclonal antibody C3 (antibody, V domains shown)
VH: QVQLVESGGGLVQPGRSLRLSCAASGFTFDDYAMHWVRQAPGKGLEWVSGISGSGGSTYYADSVKGRFTISRDNAKNSLYLQMNSLRAEDTALYYCAKSYQSDEDAFDIWGQGTMVTVSS
VL: DIQMTQSPASLPTPVGDRVTITCRASQYIQGFLNWYQQKPGKAPKLLIYDASNLETGVPSRFSGSGSGTDFTLTISSLQPEDFATYYCQQSYSTPQTFGQGTKVDIK
notes: variable part as the heavy chain of m2 (crystal structure solved here, Fab chain B); as the light chain of m2 (crystal structure solved here, Fab chain C); in the solid phase and cell assays it is compared with an isotype control antibody; also called clone C3
